Measurements from the supplement of paper PMC9170038.

Tested on: MS2 coat protein
Test: apparent KD of MS2 coat protein; designed switch direction (-1 OFF switch, 1 ON switch): -1; higher = weaker reporter binding
Summary of the method: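 RNA switches sharing common flanks were transcribed by stalled E. coli RNA polymerase on Illumina chips. A doubling series of SNAP-549-labelled MS2 coat protein, from 0.7 or 1.5 nM to 3 µM, was applied in Tris-HCl pH 7.5 buffer with KCl, MgCl2, BSA, DTT, tRNA and Tween-20. Each step lasted 0.8–1.5 h at the bottom of the series and 10–20 min at the top. Normalised cluster fluorescence was curve-fitted, giving apparent KD as the per-design median over clusters.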

[1] = input ligand: microRNA oligo, concentration not stated
[2] = Eterna round: R95, input ligand: microRNA oligo, concentration not stated
[3] = Eterna round: R95, input ligand: FMN 200 uM
[4] = Eterna round: R95, input ligand: none

GCACGCAGUGUUAGGAUAUUAAUGGCACCGCAACGUAAGAAGGAACAUGAGGAUCACCCAUGUGUGCUAGAGAA [Eternabot (Original) Solution 14] (Eterna round: R97, puzzle: Brourd's mod of Exclusion 4)
apparent KD of MS2 coat protein (input ligand: FMN 200 uM): 0.0301 µM
apparent KD of MS2 coat protein (input ligand: none): 0.0295 µM

ACACUACAUGUAGGAUAUGCGUGGCGAAGCUAUGCAGAAGGACAUGAGGAUCACCCAUGUUUUAGCGUCUGCGUACAGAUGCGU [JL ENG1 1.46] (Eterna round: R96, puzzle: Exclusion NG 1)
apparent KD of MS2 coat protein (input ligand: FMN 200 uM): 0.0447 µM
apparent KD of MS2 coat protein [1]: 0.0164 µM
apparent KD of MS2 coat protein (input ligand: none): 0.0193 µM

UUCAUGUGAGGAUAUAGUACUCCUUCUAUUAUUAUUGAGUAUUAGAAGGCACAUGAGGAUCACCCAUGUAGUAC [Ex4 - 3 - 40] (puzzle: Exclusion 4)
apparent KD of MS2 coat protein [2]: 0.0243 µM

AAUCCACAUGAGGAUCACCCAUGUCAGGAUAUCUUUGGCCUAACAUGUUAGGACCGUUAGAGAAGGGACACGAU [EX1 B.28] (Eterna round: R97, puzzle: Exclusion 1)
apparent KD of MS2 coat protein (input ligand: FMN 200 uM): 0.0703 µM
apparent KD of MS2 coat protein (input ligand: none): 0.0182 µM

CUUAAUUGUCAGAUGGGUGACAUGAGGAUCACCCAUGUCACAAGCUUUUUGUUCGUCUUAUAAUUAACCCAUCUGAC [Stov1/11-B3] (Eterna round: R97, puzzle: Sensor, turn-off variant 1)
apparent KD of MS2 coat protein (input ligand: FMN 200 uM): 0.0145 µM
apparent KD of MS2 coat protein (input ligand: none): 0.0123 µM

UACAUGAGGAUCACCCAUGUUUUGUCGUGUAUGGUAUUUAUCUAGGAUAUCAAUUUGUUUAGUUAUGAGAAGGAGAAUAUUAAU [JMF's solution 71] (Eterna round: R96, puzzle: Exclusion NG 3)
apparent KD of MS2 coat protein (input ligand: FMN 200 uM): 0.0359 µM
apparent KD of MS2 coat protein [1]: 0.0333 µM
apparent KD of MS2 coat protein (input ligand: none): 0.0376 µM

CUCCUCAUGGCGCCUAAACACAUGAGGAUCACCCAUGUGCAGGCUUUUUGCCGUCUUAUAAUAAAACCGAGGAUGCG [Vegequ] (puzzle: Sensor v3, turn-off variant 1)
apparent KD of MS2 coat protein [3]: 0.0169 µM
apparent KD of MS2 coat protein [2]: 0.0778 µM
apparent KD of MS2 coat protein [4]: 0.0162 µM

GGUUGGCGAGGAUAUACAUGAGGAUCACCCAUGUGAGAGAAAAGAGUGAGGAAGAAAAGUAGAAGGCGCUGACG [salish99_ex3_r3_006] (puzzle: Exclusion 3)
apparent KD of MS2 coat protein [3]: 0.0559 µM
apparent KD of MS2 coat protein [2]: 0.0698 µM
apparent KD of MS2 coat protein [4]: 0.0761 µM

UCAUGUUUAGAGGAUAUGAUUACUUUCGAGUAAUCAGAAGGCUAGACAUGAGGAUCACCCAUGUCAUAACAUGA [Exclusion 6 - B - 15:b] (puzzle: Exclusion 6)
apparent KD of MS2 coat protein [3]: 0.0687 µM
apparent KD of MS2 coat protein [2]: 0.0718 µM
apparent KD of MS2 coat protein [4]: 0.214 µM

AGAUAGUGCAGAGGAUAUCUUAAUAGAAAGAAUAGAGAAGGCUGACAUGAGGAUCACCCAUGUGAUGUCUUGAGACUACAUGGU [Prohibition 33 - Jieux - Exclusion NG 1] (Eterna round: R96, puzzle: Exclusion NG 1)
apparent KD of MS2 coat protein [1]: 0.0459 µM

CGAUGCACGAAUCCACAUGAGGAUCACCCAUGUCGUGUUAGCGAGGAUAUCGGAGACACAUAGUAUGAGAAGGCGCGAACCUGA [Ex NG3 #22] (Eterna round: R96, puzzle: Exclusion NG 3)
apparent KD of MS2 coat protein (input ligand: FMN 200 uM): 0.0131 µM
apparent KD of MS2 coat protein [1]: 0.0119 µM
apparent KD of MS2 coat protein (input ligand: none): 0.0131 µM

CGGCCUCGAGGAUAUGCUAUAAAAUGACCUUGGGUCAAAUGACUUGAGGAUCACCCAAGUAGAAGGCGAAAGCC [Bibice] (Eterna round: R97, puzzle: Exclusion 2)
apparent KD of MS2 coat protein (input ligand: FMN 200 uM): 0.102 µM
apparent KD of MS2 coat protein (input ligand: none): 0.093 µM

AAAUUGGUAGAGGAUAUCGUACAGGAAACGAUGCGAGAAGGUUGCACAUGAGGAUCACCCAUGUUUAGUUGCGA [EX6 #43] (Eterna round: R97, puzzle: Exclusion 6)
apparent KD of MS2 coat protein (input ligand: FMN 200 uM): 0.0233 µM
apparent KD of MS2 coat protein (input ligand: none): 0.0208 µM

GAAGUAAAUGCAGGAUAUACCCACACAUGAGGAUCACCCAUGUAGUCUACUACGGUGUUCUCACGGUAGAAGGGCACAGCCGGA [Eternabot solution 31] (Eterna round: R96, puzzle: Exclusion NG 2)
apparent KD of MS2 coat protein (input ligand: FMN 200 uM): 0.377 µM
apparent KD of MS2 coat protein [1]: 0.267 µM
apparent KD of MS2 coat protein (input ligand: none): 0.256 µM
